B1: hu37D3-H9.v76 (antibody, V domains shown)
VH: EVQLVESGGGLVQPGGSLRLSCAASGLIFRSYGMSWVRQAPGKGLEWVATINSGGTRTYYPDSVKGRFTISRDNSKNTLYLQMNSLRAEDTAVYYCANSYSGAMDYWGQGTLVTVSS
VL: DDLLTQTPLSLPVTPGQPASISCRSSQSIVHSNGNTYLEWYLQKPGQSPQLLIYKVSNRFSGVPDRFSGSGSGTDFTLKISRVEAEDVGVYYCFQGTLVPWTFGQGTKVEIK
B2: hu37D3-H9.v83 (antibody, V domains shown)
VH: B1 VH with V5L
VL: B1 VL with T7S, P15L, L42Q, K44R, Q50R
B3: hu37D3-H9.v93 (antibody, V domains shown)
VH: B1 VH
VL: EDLLTQSPSSLSASVGDRVTITCRSSQSIVHSNGNTYLEWYQQKPGKSPKLLIYKVSNRFSGVPSRFSGSGSGTDFTLTISSLQPEDFATYYCFQGTLVPWTFGQGTKVEIK

Substitutions are numbered along the chain they refer to.

Sequence of Cynomolgus monkey Tau monomer (cynomolgus monkey) (P10636 other isoform, or with tags, fused parts or gaps): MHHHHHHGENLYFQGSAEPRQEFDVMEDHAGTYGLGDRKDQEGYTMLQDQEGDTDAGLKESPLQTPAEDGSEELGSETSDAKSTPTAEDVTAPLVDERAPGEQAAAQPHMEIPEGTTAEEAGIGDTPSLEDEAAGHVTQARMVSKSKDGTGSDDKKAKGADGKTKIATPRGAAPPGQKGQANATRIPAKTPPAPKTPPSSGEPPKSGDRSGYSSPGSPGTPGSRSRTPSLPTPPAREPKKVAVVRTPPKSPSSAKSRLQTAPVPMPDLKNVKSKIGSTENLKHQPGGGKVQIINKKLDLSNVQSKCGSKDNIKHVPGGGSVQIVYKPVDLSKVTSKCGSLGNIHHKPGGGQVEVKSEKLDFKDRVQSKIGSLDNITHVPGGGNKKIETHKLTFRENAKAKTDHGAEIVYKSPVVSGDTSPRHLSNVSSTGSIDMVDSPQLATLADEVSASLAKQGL

This experiment has as its target Cynomolgus monkey Tau monomer (cynomolgus monkey). The experiment can be described thus: SPR 37C, hIgG captured, cyno Tau monomer 0.1-33.3 nM.
Turning to B1, the Kd (in general, a measure of binding affinity in units of concentration) was found to be 0.1 nM; the koff (as a rule, the rate constant with which the complex falls apart) was determined as 0.00114 s⁻¹; the kon (in general, a measure of how fast the partners come together) was 9.27e+06 M⁻¹ s⁻¹.

As to B2, the Kd worked out at 0.1 nM, the koff was 0.00114 s⁻¹ and the kon turned out to be 9.55e+06 M⁻¹ s⁻¹.

The molecule B3 displayed a Kd of 0.1 nM, a koff of 0.00178 s⁻¹ and a kon of 1.29e+07 M⁻¹ s⁻¹.
